# Assay results taken from PMC6180346, “Two Faces of CwlM, an Essential PknB Substrate, in Mycobacterium tuberculosis” (Cell Reports, 2018).
# Read-outs that look alike come from different tables or passages of the source.
# Target: FhaA C-terminal FHA domain (UniProt P71590)
substance,measurement,setting,value
CwlM 378-392 (from UniProt L7N653),binding against the reference,sites T382,gained
same,binding against the reference,sites T386,gained
